For one substance, BO results are on record in patent US20060178504A1.

The assay concerns the target binding sites on guinea-pig eosinophils (guinea-pig). Kind of assay: radioligand binding, 0.1 nM 125I-RANTES on 4x10^5 guinea-pig eosinophils, no competitor.

The substance “recombinant human RANTES (from UniProt P13501 24-91) (ligand)” displayed a BO of 14.4%.
